The source of these data is publication PMC3036151, “Cloning and endogenous expression of a Eucalyptus grandis UDP-glucose dehydrogenase cDNA” (Genetics and Molecular Biology, 2010).

For orientation: Km means the concentration of substrate that gives half-maximal velocity.

Substrate in series [1]: NC(=O)c1ccc[n+]([C@@H]2O[C@H](COP(=O)(O)OP(=O)(O)OC[C@H]3O[C@@H](n4cnc5c(N)ncnc54)[C@H](O)[C@@H]3O)[C@@H](O)[C@H]2O)c1
The series is described as follows: purified protein. The class given is biochemical, Eucalyptus grandis. The note with it: UDP-glucose saturating (1 mM), 20 mM Tris-HCl pH 8.0, 2 mM MgCl2, 30 °C, panel letters in text and Figure 3 caption are swapped, varied: cofactor.

Substrate in series [2]: O=c1ccn([C@@H]2O[C@H](CO[P@@](=O)(O)O[P@@](=O)(O)O[C@H]3O[C@H](CO)[C@@H](O)[C@H](O)[C@H]3O)[C@@H](O)[C@H]2O)c(=O)[nH]1
Kind of series: purified protein. It counts as biochemical, Eucalyptus grandis. The note with it: NAD+ saturating (1 mM), 20 mM Tris-HCl pH 8.0, 2 mM MgCl2, 30 °C, panel letters in text and Figure 3 caption are swapped.

B1: UDP-glucose dehydrogenase (UGDH), Poly-His-Tagged eucalyptus UDP-GDH, UDP-GlucDH (Eucalyptus grandis) (protein)
chain: MVKICCIGAGYVGGPTMAVIALKCPSVEVAVVDISVSRIQAWNSEQLPIYEPGLDAVVKQCRGKNLFFSTDVEKHVFEADIVFVSVNTPTKTRGLGAGKAADLTYWESAARMIADVSKSDKIVVEKSTVPVKTAEAIEKILTHNSKGIKFQILSNPEFLAEGTAIQDLFAPDRVLIGGRETPEGQKAIQTLKDVYAHWVPEDRILTTNLWSAELSKLAANAFLAQRISSVNAMSSLCEATGADVAQVSYAVGKDSRIGPKFLNASVGFGGSCFQKDILNLVYICECNGLPEVAEYWKQVIKINDYQKARFVNRVVSSMFNTVSNKKIAILGFAFKKDTGDTRETPAIDVCKGLLGDKARLSIYDPQVTEEQIQRDLTMNKFDWDHPVHLQPMSPTTVKQVSVVWDAYDAVKDAHGLCILTEWDEFKTLDYQRIYDNMQKPAYIFDGRNVVNVNKLREIGFIVYSIGKPLDPWLKDMPAVA
notes: full-length ORF (1443 bp, 480 residues, about 53 kDa) from cambial-region cDNA, N-terminal 6xHis tag (pDEST17) kept, E. coli BL21-AI; cDNA ends set by degenerate primers
For B1, the Km in “purified protein [1]” was 67.3 ± 17.9 µM; in “purified protein [2]” it was 60.7 ± 8.5 µM.
